Source: the supplement of paper PMC6755084

Test system: F1*sub RNA substrate (template-directed ligation)
Assay: fraction ligated after 30 min (ligated reads / total reads); higher = more ligase activity
Conditions: 42 °C
Procedure: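 Chip-synthesised pool of F1* ligase ribozyme variants (all single and double substitutions, single, double and triple deletions in the catalytic core and GAA bulge, plus designed variants) was transcribed with T7 and reacted as a pool with excess substrate F1*sub for 30 min at 42 C in 50 mM EPPS pH 8.5, 25 mM MgCl2. Ligated and unligated bands were separated by PAGE, barcoded by RT and deep sequenced; fraction ligated = ligated reads / total reads per variant, relative activity = FL / FL of wild type (0.826). Sequences are the DNA template of the ribozyme.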

Q: With “GAGACCGCAACTGAAAAGTTGTTATCCTTGTCGTAAGACACTTTGGATGGGTTGGTTCTGCACGTAGAAGCAAAAGGC [3d1120]” as the sequence, how does the fraction ligated read?
A: The fraction ligated was 0.00301.

Q: How did the fraction ligated turn out when “GAGACCGCAACTGAAAAGTTGTTTCACTTGTCGTAAGACACTTTGGATGGGTTGGTTCTGCACGTAGAAGCAAAAGGC [3d507]” was run?
A: Its fraction ligated is 0.00164.

Test system: F1*subA RNA substrate (template-directed ligation)
Assay: fraction ligated after 30 min (ligated reads / total reads); higher = more ligase activity; sequences stand for … in GAGACCGCAACTGAAAAGTTGT…TTTCTGCACGTAGAAGCAAAAGGC
Conditions: 42 °C, parent ribozyme: minF1
Procedure: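 Chip-synthesised pool of minF1 ligase ribozyme variants (single and double substitutions, single to quadruple deletions, bulge and P2 designed variants) was transcribed with T7 and reacted as a pool with excess substrate F1*subA for 30 min at 42 C in 50 mM EPPS pH 8.5, 25 mM MgCl2. Ligated and unligated RNAs were separated by PAGE, barcoded by RT and deep sequenced; fraction ligated = ligated reads / total reads, relative activity = FL / FL of wild-type minF1 (0.76); sequencing FL correlated with PAGE (R2 = 0.98). Sequences are the DNA template of the ribozyme.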

Q: For ATCAGAAATGGATGGGTT [4d310], which fraction ligated is on record?
A: The fraction ligated was 0.0014.

Q: ATCAGAAATGGATGGTTG [4d309] was tested. Which fraction ligated did it give?
A: The fraction ligated was 0.000441.

Q: With TATCAGAAAGGATGGGTT [4d1070] as the sequence, how does the fraction ligated read?
A: Its fraction ligated is 0.00116.

Q: Which fraction ligated does the source give for TATCAGAAAGGATGGTTG [4d1069] here?
A: Its fraction ligated is 0.000981.

Q: How did the fraction ligated turn out when TATCAGAAATGATGGGTT [4d1093] was run?
A: Its fraction ligated is 0.

Q: With TATCAGAAATGATGGGTTG [3d366] as the sequence, how does the fraction ligated read?
A: Its fraction ligated is 0.000941.

Q: With TATCAGAAATGATGGTTG [4d1092] as the sequence, how does the fraction ligated read?
A: Its fraction ligated is 0.00043.

Q: How did the fraction ligated turn out when TATCAGAAATGGAGGGTTG [3d376] was run?
A: The fraction ligated was 0.00056.

Q: Which fraction ligated does the source give for TATCAGAAATGGATGGGTT [3d379] here?
A: Its fraction ligated is 0.00181.

Q: Which fraction ligated does the source give for TATCAGAAATGGATGGGTT [s45 (=3d379)] here?
A: The fraction ligated was 0.00181.

Q: How did the fraction ligated turn out when TATCAGAAATGGATGGTTA [3d377] was run?
A: Its fraction ligated is 0.00122.

Q: TATCAGAAATGGATGGTTG [3d378] was tested. Which fraction ligated did it give?
A: The fraction ligated was 0.00121.

Q: TATCAGAAATGGTGGGTTG [3d372] was tested. Which fraction ligated did it give?
A: The fraction ligated was 0.000922.

Q: For TATCAGAATGGATGGGTT [4d1042], which fraction ligated is on record?
A: The fraction ligated was 0.00126.

Q: With TATCAGAATGGATGGTTG [4d1041] as the sequence, how does the fraction ligated read?
A: The fraction ligated was 0.00128.
